Assay results from US12559560B2, “Antibody-based compositions for targeting tropomyosin receptor kinase B (TrkB) isoforms” (Fred Hutchinson Cancer Center, priority 2020, dated 2026).

Legend:
Assay type in all cases: binding
[1] = molecular target: T1, full length TrkB.T1 protein (Mus musculus, UniProt P15209); experiment: Wes capillary Western blot of mouse brain detergent extracts (antibody screening Stage 2); conditions: normal and KO mouse brain detergent extracts; monoclonal culture super diluted 1:2
T1 construct: mouse brain lysates from TrkB.T1^+/+ and TrkB.T1^−/− mice were prepared by mechanical disruption; from tissue; host or cells: mouse brain (TrkB.T1+/+ wild type; TrkB.T1-/- as negative control)
Method: Wes™ capillary electrophoresis for antibody development. Protein Simple Wes™ was used at two stages of antibody screening: Stage 1, selecting immunized mice to advance for hybridoma generation, and Stage 2, for validation of monoclonal antibodies that Western blot full-length TrkB.T1 protein in murine brain detergent extracts. Briefly, mouse brain lysates from TrkB.T1^+/+ and TrkB.T1^−/− mice were prepared by mechanical disruption (Dounce tissue homogenizer, Kimble Chase) in RIPA lysis buffer (Pierce™ RIPA Lysis and Extraction Buffer, ThermoScientific™) containing HALT™ Protease and Phosphatase Inhibitor Cocktail and EDTA (ThermoScientific™) and normalized to 2 μg/μl total protein via Bradford Protein Assay. Approximately 8-10 ng total brain extract protein was loaded into the Protein Simple Capillary WES system for Western analysis following Protein Simple recommended methods (Rustandi, R. R., et al. Applications of an automated and quantitative CE-based size and charge western blot for therapeutic proteins and vaccines. Methods Mol. Biol. 1466, 197-217 (2016)). Mice with antisera (1:2500 dilution in PBS and Antibody Diluent (Protein Simple)) that identified a positive band at 90-100 kDa for the TrkB.T1 protein were advanced forward for final boosting, splenectomy, and hybridoma generation (FIG. 3B). […]

TrkB.T1 [2] = molecular target: T2, TrkB.T1 (Homo sapiens, UniProt Q16620); experiment: TrkB.T1 immunohistochemistry on human brain
T2 construct: To determine endogenous localization of TrkB.T1 in human brain, a monoclonal antibody; from tissue; host or cells: normal human brain (rapid autopsy, FFPE sections)
Method: (§1) Antibody validation phase—large batch IHC. Four-μm sections of a multi-tissue block containing human brain, mouse brain, TrkB.T1^−/− mouse brain, a cell pellet over-expressing TrkB.T1 and a cell pellet without TrkB.T1 were cut and stained with the Leica Bond Rx (Leica Biosystems, Buffalo Grove, IL). Slides were pretreated with H2 antigen retrieval buffer for 20 min. Endogenous peroxidase was blocked with 3% hydrogen peroxide for 5 min. A TCT protein block was applied for 10 min (0.05 M Tris, 0.15 M NaCl, 0.25% Casein, 0.1% Tween 20, pH 7.6). Supernatants from multiple boosting and pre-/post-fusion samples, along with antibody clone D12 were used at 1:20 and applied to the tissue for 30 min. The antibody was then detected using Leica Power Vision HRP Mouse specific polymer (Leica Biosystems catalog #PV6114) for 12 min and staining was visualized with Refine DAB (Leica Biosystems catalog #D59800) and a hematoxylin counterstain was used (Hematoxylin 50% in H2O from Biocare catalog #NM-HEM-M). Mouse isotype control slides were included for each run (Jackson ImmunoResearch Laboratories) at 2 μg/ml. Digital images of IHC-stained slides were obtained at ×40 magnification (0.25 μm/pixel) using a whole slide scanner (ScanScope AT Turbo, Aperio) fitted with a 20×/0.75 Plan Apo objective lens and ×2 magnification changer (Olympus, Center Valley, Pa., USA). […]

TrkB.T1 [3] = molecular target: T3, TrkB.T1 (Mus musculus, UniProt P15209); experiment: TrkB.T1 immunohistochemistry on mouse brain / mouse tumors
T3 construct: from tissue; host or cells: formalin-fixed paraffin-embedded mouse brain and RCAS/tv-a mouse gliomas
Method: as §1

T3 sequence (P15209 32-476 isoform P15209-2 limits assumed): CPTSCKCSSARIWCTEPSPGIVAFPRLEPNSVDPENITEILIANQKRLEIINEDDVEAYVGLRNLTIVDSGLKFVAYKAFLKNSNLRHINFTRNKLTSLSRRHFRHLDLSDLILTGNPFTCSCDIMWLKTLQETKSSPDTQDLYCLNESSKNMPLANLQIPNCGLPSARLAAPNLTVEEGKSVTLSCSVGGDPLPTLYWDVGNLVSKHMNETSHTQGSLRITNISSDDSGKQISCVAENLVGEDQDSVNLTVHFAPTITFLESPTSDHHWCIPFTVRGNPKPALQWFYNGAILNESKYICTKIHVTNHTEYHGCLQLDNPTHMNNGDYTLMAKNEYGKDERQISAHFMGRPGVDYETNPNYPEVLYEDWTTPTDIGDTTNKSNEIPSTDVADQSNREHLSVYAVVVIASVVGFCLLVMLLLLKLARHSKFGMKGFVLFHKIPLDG
T2 sequence (Q16620 32-477 isoform Q16620-2 limits assumed): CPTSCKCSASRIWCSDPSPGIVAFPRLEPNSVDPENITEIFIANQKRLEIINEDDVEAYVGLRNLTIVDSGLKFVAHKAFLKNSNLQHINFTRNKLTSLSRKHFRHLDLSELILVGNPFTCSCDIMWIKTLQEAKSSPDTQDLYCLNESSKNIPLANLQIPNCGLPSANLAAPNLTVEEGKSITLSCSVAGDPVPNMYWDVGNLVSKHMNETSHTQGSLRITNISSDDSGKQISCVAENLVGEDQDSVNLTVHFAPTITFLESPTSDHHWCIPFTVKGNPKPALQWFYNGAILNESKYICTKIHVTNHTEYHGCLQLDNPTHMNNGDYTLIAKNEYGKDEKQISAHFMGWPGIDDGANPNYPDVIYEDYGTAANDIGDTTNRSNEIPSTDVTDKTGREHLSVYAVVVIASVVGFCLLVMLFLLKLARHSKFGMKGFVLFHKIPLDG
T1 sequence (P15209 32-476 isoform P15209-2 limits assumed): as the sequence (P15209 32-476 isoform P15209-2 limits assumed) above

B1: Clone FH1D12: Murine monoclonal antibody to the TrkB.T1 C-terminal peptide … (SEQ ID NO:1), raised in TrkB.T1 null mice (antibody, V domains shown)
VL: QTVVTQESALTTSPGETVTLTCRSSTGAVTTSNYANWVQEKPDHLFTGLIGGINNRAPGVPARFSGSLIGDKAVLTITGAQTEDEAIYFCALWYSNHWVFGGGTKLTVL
VH: VQLQQSGPELARPWASVKISCQAFYTFSRGIHFDIRNTMYWIQWVKQRPGQGLEWIGAIYPGNGDPTYSQNFKDKATLTADKSSNTAYMQLSSLTSEDSAVYYCARYDYGGGFTYWGQGTLVTVSAGS
Western blotting activity (full length TrkB.T1 protein) [1]: positive | immunostaining in human brain (TrkB.T1 [2]): positive | staining in TrkB.T1-/- knockout mouse brain (TrkB.T1 [3]; TrkB.T1-/- knockout mouse brain (specificity control)): absent | immunostaining in wild-type (WT) mouse brain (TrkB.T1 [3]; wild-type mouse brain): positive
